Measured values from patent US20240425607A1, “IL-18BP ANTAGONIST ANTIBODIES AND THEIR USE IN MONOTHERAPY AND COMBINATION THERAPY IN THE TREATMENT OF CANCER” (Compugen Ltd., priority 2023, published 2024).
Entries after “also recorded” stand apart in the source; their conditions may differ.

Columns and labels:
[1] = tested on: human TDCs with endogenous IL18 and IL18BP; assay: Ex vivo culture of human tumor dissociated cells (TDCs); type: cell-based
Method: Resected tumor specimens were cut into 1 mm pieces using scalpel and transferred into enzymatic digestion mix (Tumor Dissociation kit, Miltenyi, 130-095-929). Dissociation was done according to the manufacturer's instructions using gentle MACS Dissociator (Miltenyi Biotec). Dissociation time lasted 1 h under mechanical rotation and heating. Samples were centrifuged for 3 min at 300 g, pellet was resuspended in RPMI, passed through a MACS SmartStrainer (70 μm), and centrifuged for 7 min at 300 g. Cells were resuspended with RBC for 3 min, washed with RPMI 1640, transferred through 40 μm filter and centrifuged for 7 min at 300 g. Finally, cells were resuspended in PBS, stained with Trypan blue and counted. Samples were then stained for flow cytometric analyses or resuspended in fetal bovine serum containing 10% of dimethyl sulfoxide for storage in liquid nitrogen.
Human TDC samples were seeded at 0.1×10^6 of CD45+ cells per well in 96-well plate, pre-coated with anti-CD3 and anti-CD28 antibodies (10 μg/ml both). Complete medium, [RPMI 1640 (BI, Cat. #01-110-1A) supplemented with 10% human AB serum (Sigma, Cat. #H3667), 1% Penicillin/Streptomycin (BI, Cat. #03-031-1B), 1% 1-glutamine (Life Technologies, Cat. #35050-038) and 1% of sodium pyruvate (BI, Cat. #03-042-1B)] was used. […]

[2] = target: T1, recombinant human IL18-BP (Homo sapiens, UniProt O95998); assay: CMV recall assay; type: cell-based
T1 construct: purchased R&D systems 119-BP
T1 sequence (O95998 31-194): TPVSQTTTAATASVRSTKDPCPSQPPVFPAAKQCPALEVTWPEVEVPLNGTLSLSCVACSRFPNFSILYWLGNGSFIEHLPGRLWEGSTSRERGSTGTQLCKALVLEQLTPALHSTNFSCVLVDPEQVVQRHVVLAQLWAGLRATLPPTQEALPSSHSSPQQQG
Method: Human MEL-624 overexpressing PD-L1 cells were thawed and loaded with CMV pp65 peptide (0.03 μg/ml). The cells were seeded at 100K/well in a 96 well plate and incubated for 30 minutes in 37° C., 5% C02 incubator with a combination rhIL-18 (30 ng/ml, R&D systems, 9124-IL/CF) and rhIL-18BP-Fc chimeric protein (2 μg/ml, R&D systems 119-BP) to allow IL-18+IL-18BP complex formation. After 30 minutes, anti-human IL-18BP (ADI-71722), anti-human PVRIG, anti-human TIGIT (anti-TIGIT), anti-human PD1 (Pembrolizumab) or relevant isotype control (hIgG4) were added to the culture to examine their capability to restore IL-18 activity. All antibodies were added to a final concentration of 10 μg/ml. 30 minutes post incubation with antibodies, thawed CMV-reactive T-cells were added to the culture. Cells and all added solutions were prepared in full IMDM (IMDM media with 10% human serum, 1% Glutamax, 1% MEM eagle, 1% sodium pyruvate, and 1% Penicillin-Streptomycin Solution) to a final volume of 200 μl/well. Plates were incubated for 24 hours in 37° C., 5% C02 incubator, after which the supernatant was collected for IFNγ secretion evaluation. All tests were done in triplicates and each repeated with three donors.
MEL624 cells that overexpress PD-L1 were loaded with CMV peptide pp65. […] CMV-specific T-cells were then added to the culture and IFNg secretion was measured after an overnight incubation.

B1: ADI-71739: anti-IL18-BP antibody, sequences in FIG. 2K; 66716 lineage (antibody, V domains shown)
VH: QLQLQESGPGLVKPSETLSLTCTVSGGSISSPDYPWGWIRQPPGKGLEWIGSIYYQGATYYNPSLKSRVTISVDTSKNQFSLKLSSVTAADTAVYYCARGPYRQLFDYWGQGTLVTVSS
VL: DIQMTQSPSSVSASVGDRVTITCRASQGISSWLAWYQQKPGKAPKLLIYAASSLQSGVPSRFSGSGSGTDFTLTISSLQPEDFATYYCQQGSVFPYTFGGGTKVEIK
- Cytokine and Granzyme B secretion by TDCs, vs media ([1]; 10 μg/ml, anti-CD3/anti-CD28 stimulation, human ovarian TDC sample): enhanced TNFa, IFNg, IL2 and Granzyme B secretion
- Cytokine and Granzyme B secretion by TDCs, combination with pembrolizumab vs Pembro alone ([1]; each 10 μg/ml): further increased TNFa, IFNg, and Granzyme B secretion
- IFNγ secretion by CMV-reactive T-cells, as mono ([2]; 10 μg/ml, rhIL-18 30 ng/ml + rhIL-18BP 2 μg/ml): increase IFNγ secretion from CMV-reactive T-cells; also recorded: increase IFNγ secretion by the T cells
- IFNγ secretion by CMV-reactive T-cells, in combination ([2]; combined with Pembrolizumab, anti-PVRIG or anti-TIGIT, each 10 μg/ml, vs mono): in a more potent manner; also recorded: augmented
